From the RNAGym collection of RNA variant scans (doi:10.1073/pnas.2313332121)
This sample holds only a part of the variants without activity.

B1: TPR 5TU (parent)
chain: GGAUCUUCUCGAUCUAACAAAAAAGACAAAUCUGCCACAAAGCUUGAGAGCAUCUUCGGAUGCAGAGGCGGCAGCCUUCGGUGGCGCGAUAGCGCCAACGUUCUCAACUAUGACACGCAAAACGCGUGCUCCGUUGAAUGGAGUUUAUCAUG

Variants of: B1
Assay: polymerase ribozyme fitness, log enrichment relative to wild type (log ratio); higher = more active; in vitro selection for triplet polymerase activity
How it was run: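 Mutant libraries were PCR-built and transcribed for each subunit of a heterodimeric triplet polymerase ribozyme and selected for one round in triplicate at −7 °C, frozen, before gel excision of extended constructs and streptavidin-bead capture. Input and output libraries were Illumina-sequenced, keeping genotypes with ≥10 input reads and ≥1 read per output. Fitness is a logarithmic ratio of genotype to wild-type enrichment, in base 2, using inverse-variance-weighted replicate averages.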

| Variant | polymerase ribozyme fitness (log ratio) |
| --- | --- |
| A19U A60U C93U C114U | -4.17 |
| A19U C57A A60C C93A | ≤ -4.2 |
| A20U A22U C57A C96G C125U | -3.05 |
| A20U A26G C27A C36U C93U A147U | ≤ -4.2 |
| A19C C32U A49G G59U | ≤ -4.2 |
| A19C U56A A91U A147C | ≤ -4.2 |
| A20G A21C G94A U146G | -0.812 |
| C18U C76A C95U C99A U101G A107U C149G | ≤ -4.2 |
| A19U U56A A60G C75U C93A C118U U146A | -3.86 |
| C18U A21C G42C C93U | ≤ -4.2 |
| A19G C87A C116A G143C U145G G152U | ≤ -4.2 |
| A20C C36U A47C | -1.91 |
| A19G A40C C85G A147C | -3.28 |
| C18U G81A C87U A97U | -1.14 |
| A20G C38G C69U G86U A91U C99G A137G | ≤ -4.2 |
| A19G C69G C76U U82G G88A G141U A150C | ≤ -4.2 |
| A19C A28U C75A C85U G92U | ≤ -4.2 |
| A20C A21G G48A C54A A113C A147C | ≤ -4.2 |
| A20C U55G G67U C72A C85U | ≤ -4.2 |
| A19U G58C C87U C95U C116G | -1.52 |
| A20G A47G | -0.368 |

| Variant | polymerase ribozyme fitness (log ratio) |
| --- | --- |
| A19C C27A A39C C79U C93A U102G G117C | -4.01 |
| C18U A20G C76A U77A G92U U101A U134G | ≤ -4.2 |
| A20C G48U G59A A119U U135A U146C | -2.07 |
| A20U A49U C93G C103U | ≤ -4.2 |
| C18U A40G | -2.32 |
| A19C A20G G136A A147G | -2.36 |
| A19U A41C A73U A91C C93U C129G G140U C149U | ≤ -4.2 |
| A19C G94C U102G | ≤ -4.2 |
| A19G U55A C85A | -2.52 |
| A19C G92U | 0.745 |
| A19C G92A | -2.38 |
| A20C A41U G59A A60U C69G G86A C103G | ≤ -4.2 |
| A19G U55A C87A A106G G124C G136C C149A A150C | ≤ -4.2 |
| A20C U53A G84A | -1.69 |
| A20C G50U G83U | -0.904 |
| A19U G70A U82A U127G | ≤ -4.2 |
| A20C A113U U127A | ≤ -4.2 |
| A20C A24G A40C C69A C75G C87U G88C U102C G124A G133C U135C A147C | ≤ -4.2 |
| A19G U78G C87G A98U U101G G126A | ≤ -4.2 |
| A20C A22C C43U G83C | ≤ -4.2 |
| A19G C96U C123U | -0.681 |

| Variant | polymerase ribozyme fitness (log ratio) |
| --- | --- |
| A19G G50U U55A C96U U145G | -2.18 |
| A20C C87G G94C C99A A107U C108G | ≤ -4.2 |
| A20G C27G A29U A97G A120G U146G | -4.06 |
| A19G A28G C38U A49C G58A G65A C76A C93G | ≤ -4.2 |
| A20G G46U G92U | -0.107 |
| A19U G42C G86U A110G C116A G117U | ≤ -4.2 |
| A19C A60G C96U | 0.412 |
| A19U G136C | -3.86 |
| A20C A52C C79G | ≤ -4.2 |
| A19U C38U G50A C79A | ≤ -4.2 |
| A20G C36U A119U A120C C129U A142G | -4.1 |
| C18U A19U A24G G74U C79U | ≤ -4.2 |
| A20C A41U G68C G83A G100U A115G C116U C123G | ≤ -4.2 |
| A20G G59C G94C | -0.672 |
| A20U A41C G50A G141A | -4.03 |
| A19U A30U U55G G59A G86U A150U | ≤ -4.2 |
| C18U G86A G140A | ≤ -4.2 |
| A19C A29U C54G C108U | ≤ -4.2 |
| C18U C32U A37C C54A C69A G70U A97U A138C C149A | ≤ -4.2 |
| A19G C85U | -1.3 |
| A19G C85G | -2.84 |

| Variant | polymerase ribozyme fitness (log ratio) |
| --- | --- |
| C18U U44A G46U A64G U77A A110C G140C U148A | ≤ -4.2 |
| A19C A21C A26C U44A C57A U61A G68A G86A C118U | ≤ -4.2 |
| A19U A20C A73G G92U C116A | -0.142 |
| A20C G84U | -3.03 |
| A20G C38A C95U C125U G140C | ≤ -4.2 |
| A19U G46A C51U A91G G124U U139A | ≤ -4.2 |
| A19U A23C A91U | ≤ -4.2 |
| A20G A41U C51A U56A C76U G86U G88U A91U C123A U144A C149A | ≤ -4.2 |
| A19U G94C | -0.449 |
| A20G C96U | -0.654 |
| A19C G80A C85G | -0.89 |
| A19U C75U U139G G140A U151G | ≤ -4.2 |
| A19C U53G C85U G92A C103A G141C | ≤ -4.2 |
| A20U A40C G80U G83A C99U G133U A142G U145C | ≤ -4.2 |
| C18U A23U A26U A30U C87U C96G C108U G136A | ≤ -4.2 |
| A20C C87A | ≤ -4.2 |
| A20C C87U | -1.36 |
| A19U C114G | -3.52 |
| A19U C35G C43A U56A G58U C85U A113G A122C U151A | ≤ -4.2 |
| A20G A37U U111G | ≤ -4.2 |
